The target of the assay is T1, Recombinant soluble CD59 comprising amino acids 1-76 with an 11 amino acid Ser/Gly linker and termin (human, terminal Cys reduced with TCEP and thiol-coupled to the PDEA-modified CM5 chip).
T1 construct: also called recombinant CD59; immobilised CD59
Put plainly: SPR. The settings on record: both partners purified.

In general, Kd refers to the concentration at which binding is half-saturated. In the case of AWEPWRLIYSKNDLPLVPC, the Kd came out at 4.92 µM.

(Values after article PMC2697320, “Identification of the high affinity binding site in the Streptococcus intermedius toxin intermedilysin for its membrane receptor, the human complement regulator CD59” (Molecular Immunology, 2009).)
